Laboratory results: paper PMC5458078, “Global mapping of CARM1 substrates defines enzyme specificity and substrate recognition” (Nature Communications, 2017)

B1: CARM1 FL: full-length CARM1, contained 608 residues (protein)
chain: MAAAAAAVGPGAGGAGSAVPGGAGPCATVSVFPGARLLTIGDANGEIQRHAEQQALRLEVRAGPDSAGIALYSHEDVCVFKCSVSRETECSRVGKQSFIITLGCNSVLIQFATPNDFCSFYNILKTCRGHTLERSVFSERTEESSAVQYFQFYGYLSQQQNMMQDYVRTGTYQRAILQNHTDFKDKIVLDVGCGSGILSFFAAQAGARKIYAVEASTMAQHAEVLVKSNNLTDRIVVIPGKVEEVSLPEQVDIIISEPMGYMLFNERMLESYLHAKKYLKPSGNMFPTIGDVHLAPFTDEQLYMEQFTKANFWYQPSFHGVDLSALRGAAVDEYFRQPVVDTFDIRILMAKSVKYTVNFLEAKEGDLHRIEIPFKFHMLHSGLVHGLAFWFDVAFIGSIMTVWLSTAPTEPLTHWYQVRCLFQSPLFAKAGDTLSGTCLLIANKRQSYDISIVAQVDQTGSKSSNLLDLKNPFFRYTGTTPSPPPGSHYTSPSENMWNTGSTYNLSSGMAVAGMPTAYDLSSVIASGSSVGHNNLIPLANTGIVNHTHSRMGSIMSTGIVQGSSGAQGSGGGSTSAHYAVNSQFTMGGPAISMASPMSIPTNTMHYGS
modifications: left off: FLAG, end not stated, kept
notes: full-length CARM1, contained 608 residues
B2: CARM1 28–608: CARM1 28–608 lacks the first, unstructured 28 residues (protein)
chain: TVSVFPGARLLTIGDANGEIQRHAEQQALRLEVRAGPDSAGIALYSHEDVCVFKCSVSRETECSRVGKQSFIITLGCNSVLIQFATPNDFCSFYNILKTCRGHTLERSVFSERTEESSAVQYFQFYGYLSQQQNMMQDYVRTGTYQRAILQNHTDFKDKIVLDVGCGSGILSFFAAQAGARKIYAVEASTMAQHAEVLVKSNNLTDRIVVIPGKVEEVSLPEQVDIIISEPMGYMLFNERMLESYLHAKKYLKPSGNMFPTIGDVHLAPFTDEQLYMEQFTKANFWYQPSFHGVDLSALRGAAVDEYFRQPVVDTFDIRILMAKSVKYTVNFLEAKEGDLHRIEIPFKFHMLHSGLVHGLAFWFDVAFIGSIMTVWLSTAPTEPLTHWYQVRCLFQSPLFAKAGDTLSGTCLLIANKRQSYDISIVAQVDQTGSKSSNLLDLKNPFFRYTGTTPSPPPGSHYTSPSENMWNTGSTYNLSSGMAVAGMPTAYDLSSVIASGSSVGHNNLIPLANTGIVNHTHSRMGSIMSTGIVQGSSGAQGSGGGSTSAHYAVNSQFTMGGPAISMASPMSIPTNTMHYGS
modifications: left off: FLAG, end not stated, kept
notes: CARM1 28–608 lacks the first, unstructured 28 residues

How the values were obtained:
HEK293T cells = assay: Western blot of FLAG-tagged TET2 with ADMA antibodies, wild type vs CARM1 KO; format: cell-based
Method: TET2, methylcytosine dioxygenase with a prominent role in DNA demethylation frequently mutated in various human cancers, was identified among novel CARM1 substrates. To assure its correct identification, we probed FLAG-tagged TET2 with ADMA antibody in wild type and CARM1 KO HEK293T cells (Fig. 2c).
(§1) Cells were collected by trypsinization, washed with Dulbecco's phosphate buffer saline (Life Technologies, Carlsbad, CA) and lysed by suspension in lysis buffer (50 mM Tris-HCl pH 8.0, 150 mM NaCl, 10% glycerol, 0.5% Triton X-100 and 1 × protease inhibitor cocktail (Sigma-Aldrich)). After brief sonication followed by centrifugation, total protein was quantified using the BioRad Protein Assay (BioRad, Hercules, CA), and 20 μg protein was resolved by SDS–PAGE. Proteins were transferred to a nitrocellulose membrane for 1.5 h at 350 mA. Membranes were blocked with 5% nonfat milk at room temperature for 1 h and incubated overnight with diluted primary antibody at 4 °C. Membranes were then washed and incubated with HRP-conjugated secondary antibody for 1 h at room temperature. Signal was visualized by enhanced chemiluminescence reagents (Thermo Scientific, Rockford, IL) and X-ray film exposure followed by scanning and digitalization. Me-PABP1 and PABP1 antibodies, me-BAF155 antibody[20] and me-MED12 antibody[30] were generated previously in the Xu lab. […]

HEK293T CARM1 KO cells [1] = assay: Total ADMA levels after transient transfection, western blot; format: cell-based; settings: transient expression in HEK293T CARM1 KO cells
Method: (§2) Next, we transiently transfected FL and the two aforementioned CARM1 truncations in HEK293T CARM1 KO cells and measured substrate methylation by western blotting with ADMA antibodies.
as §1

[2] = test system: recombinant full-length BAF155 protein; assay: In vitro methylation of full-length FLAG-BAF155 by recombinant CARM1 proteins, autoradiography; format: biochemical; settings: 3H-SAM, 50 mM Tris-HCl pH 8.0, 100 mM NaCl, 0.5 mM EDTA, 1–4 h, 30 °C
Method: The FL and N-terminal domain-deleted version of human CARM1 cDNAs, and other PRMT FL cDNAs were cloned into pFN21K Halo Tag CMV Flexi mammalian expression vector (Promega, Madison, WI) using the unique Sgfl and Pmel site[55]. To express the protein, DNA constructs were transiently transfected into HEK293T CARM1 KO cells in 15 cm dishes using transIT-LT1 reagent (Mirus Bio, Madison, WI) according to the manufacturer's protocol. Proteins were allowed to express for 48 h. Cell pellets were then collected and lysed in lysis buffer (50 mM HEPES, pH 7.5, 150 mM NaCl, 0.005% NP-40, 0.5 mM EDTA, supplemented with 1 × protease inhibitor cocktail before use). The cells were sonicated on ice using a Branson Sonifier 450 with a microtip at 35% amplitude (10 s on, 30 s off, 6 cycles). […] The resin was centrifuged at 3,000 r.p.m. for 5 min, and the supernatant containing the cleaved protein was collected and protein concentration was determined using the Bradford assay (Thermo Scientific, Rockford, IL). Protein purity was assessed by running SDS–PAGE and Coomassie Blue staining.
CMX-Flag-BAF155 construct was generated by subcloning a PCR-amplified Flag-BAF155 fragment into the CMX-expression vector. […] Protein concentration was determined using Bradford assay and protein purity was assessed by SDS–PAGE and Coomassie Blue staining. […]

[3] = test system: BAF155, MED12, PABP1, NCOA3 and TET2; assay: Co-immunoprecipitation of BAF155, MED12, PABP1, NCOA3 and TET2 with FLAG-tagged CARM1, western blot; format: cell-based; settings: FLAG-tagged construct transiently transfected in HEK293T CARM1 KO cells; anti-FLAG IP
Source text: The structure of the N-terminal domain of CARM1 (residues 28–140) resembles those of the EVH1 domains, a subfamily of PH domains that bind proline-rich sequences. With our discovery that CARM1 substrates contain proline-rich motifs, we posited that the protein's N-terminal domain may be required for substrate recognition. To test this hypothesis, we generated three CARM1 constructs: one full-length (CARM1 FL) and two N-terminal truncations CARM1 28–608 and CARM1 140–608 (Fig. 3a). […] We transiently transfected the three FLAG-tagged CARM1 fusion constructs in HEK293T CARM1 KO cells. CARM1 was immunoprecipitated from all three cell lines using anti-FLAG M2 resin, and four known CARM1 substrates/interactors (that is, BAF155 (ref. [20]), MED12 (ref. [30]), PABP1 (ref. [36]) and NCOA3 (ref. [19])) and newly identified TET2 were detected by western blotting. […] To globally assess the magnitude of reduction in CARM1–substrate interactions induced by the loss of the EVH1 domain, we visualized overall protein changes in CARM1 immunoprecipitates by western blotting using the ADMA antibody (Fig. 3c).
as §1, with “digitalization.” for “digitalization. Me-PABP1 and PABP1 antibodies, me-BAF155 antibody[20] and me-MED12 antibody[30] were generated previously in the Xu lab.”

HEK293T CARM1 KO cells [4] = assay: Rescue of endogenous BAF155 and MED12 methylation, transient transfection, western blot; format: cell-based; settings: transient expression in HEK293T CARM1 KO cells
Method: as §2
Cells were collected by trypsinization, washed with Dulbecco's phosphate buffer saline (Life Technologies, Carlsbad, CA) and lysed by suspension in lysis buffer (50 mM Tris-HCl pH 8.0, 150 mM NaCl, 10% glycerol, 0.5% Triton X-100 and 1 × protease inhibitor cocktail (Sigma-Aldrich)). After brief sonication followed by centrifugation, total protein was quantified using the BioRad Protein Assay (BioRad, Hercules, CA), and 20 μg protein was resolved by SDS–PAGE. Proteins were transferred to a nitrocellulose membrane for 1.5 h at 350 mA. Membranes were blocked with 5% nonfat milk at room temperature for 1 h and incubated overnight with diluted primary antibody at 4 °C. Membranes were then washed and incubated with HRP-conjugated secondary antibody for 1 h at room temperature. Signal was visualized by enhanced chemiluminescence reagents (Thermo Scientific, Rockford, IL) and X-ray film exposure followed by scanning and digitalization. Me-PABP1 and PABP1 antibodies, me-BAF155 antibody[20] and me-MED12 antibody[30] were generated previously in the Xu lab. FLAG antibody (catalogue #F7425) was purchased from Sigma and used at a dilution of 1:5,000; BAF155 antibody (sc-10756) was purchased from Santa Cruz and used at a dilution of 1:1,000; MED12 antibody (ab70842) was purchased from Abcam (Cambridge, MA) and used at 1:1,000 dilution.

Row | Molecule | ADMA modification of TET2 in the absence of CARM1 (HEK293T cells) | Total levels of ADMA modification (HEK293T CARM1 KO cells [1]) | Methylation of full-length BAF155 [2] | Co-precipitation of BAF155, MED12, PABP1, NCOA3 and TET2 [3] | Methylation of endogenous BAF155 and MED12 (HEK293T CARM1 KO cells [4])
1 | TET2: FLAG-tagged TET2, methylcytosine dioxygenase | complete disappearance of ADMA modification on TET2 |  |  |  | 
2 | B1 |  | recovered to the level of parental cells | methylated recombinant full-length BAF155 protein | all five proteins were co-precipitated | methylation of endogenous BAF155 and MED12 was restored
3 | B2 |  | recovered to the level of parental cells | methylated recombinant full-length BAF155 protein | all five proteins were co-precipitated | methylation of endogenous BAF155 and MED12 was restored
